Measured values from patent publication US20020058247A1 (TRIPEP, published 2002).

B1: HBcAg peptide WVGVNLEDPASRDLVVSYVN (residues 71-90, Sequence ID 102) (peptide)
peptide: WVGVNLEDPASRDLVVSYVN
B2: GYIFTS (SEQ. ID. No. 52) (peptide)
peptide: GYIFTS
B3: HBcAg peptide TNMGLKFRQLLWFHISCLTF (SEQ. ID. No. 104, residues 91-110) (peptide)
peptide: TNMGLKFRQLLWFHISCLTF
B4: LSCKASGYIFTS (SEQ. ID. No. 46) (peptide)
peptide: LSCKASGYIFTS
B5: SCKASGYIFTS (SEQ. ID. No. 47) (peptide)
peptide: SCKASGYIFTS
B6: HBcAg peptide ATVELLSFLPSDFFPSVRDL (residues 11-30, Sequence ID 96) (peptide)
peptide: ATVELLSFLPSDFFPSVRDL
B7: HBcAg peptide SRDLVVSYVNTNMGLKFRQL (SEQ. ID. NO. 103, residues 81-100) (peptide)
peptide: SRDLVVSYVNTNMGLKFRQL
B8: SVKLSCKASGYIFTS (SEQ. ID. No. 43) (peptide)
peptide: SVKLSCKASGYIFTS
B9: HBcAg peptide AYRPPNAPILSTLPETTVVR (residues 131-150, Sequence ID 108) (peptide)
peptide: AYRPPNAPILSTLPETTVVR
B10: ASGYIFTS (SEQ. ID. No. 50) (peptide)
peptide: ASGYIFTS
B11: SGYIFTS (SEQ. ID. No. 51) (peptide)
peptide: SGYIFTS
B12: HBcAg peptide SDFFPSVRDLLDTASALYRE (residues 21-40, Sequence ID 97) (peptide)
peptide: SDFFPSVRDLLDTASALYRE
B13: ASVKLSCKASGYIFTS (SEQ. ID. No. 42) (peptide)
peptide: ASVKLSCKASGYIFTS
B14: HBcAg peptide ALESPEHCSPHHTALRQAIL (residues 41-60, Sequence ID 99) (peptide)
peptide: ALESPEHCSPHHTALRQAIL
B15: VKLSCKASGYIFTS (SEQ. ID. No. 44) (peptide)
peptide: VKLSCKASGYIFTS
B16: KLSCKASGYIFTS (SEQ. ID. No. 45) (peptide)
peptide: KLSCKASGYIFTS
B17: GASVKLSCKASGYIFTS (SEQ. ID. No. 41) (peptide)
peptide: GASVKLSCKASGYIFTS
B18: HBcAg peptide LWFHISCLTFGRETVIEYLV (residues 101-120, Sequence ID 105) (peptide)
peptide: LWFHISCLTFGRETVIEYLV
B19: HBcAg peptide CWGELMTLATWVGVNLEDPA (residues 61-80, Sequence ID 101) (peptide)
peptide: CWGELMTLATWVGVNLEDPA
B20: CKASGYIFTS (SEQ. ID. No. 48) (peptide)
peptide: CKASGYIFTS
B21: HBcAg peptide LDTASALYREALESPEHCSP (residues 31-50, Sequence ID 98) (peptide)
peptide: LDTASALYREALESPEHCSP
B22: KASGYIFTS (SEQ. ID. No. 49) (peptide)
peptide: KASGYIFTS

What was measured:
[1] = target: T1, VKLSCKASGYIFTSHRGGPEE (SEQ. ID. No. 74); assay: competition EIA, 5 ug HBcAg peptide + 5 ug SEQ 74 peptide on coated HBcAg (competitor); OD of bound SEQ 74 peptide
T1 peptide: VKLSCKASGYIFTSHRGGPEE

[2] = target: T2, Full length recombinant HBcAg (rHBcAg) encompassing residues 1-183 (hepatitis B virus, UniProt P03146 1-183); assay: EIA, support-bound peptide, HBcAg 5 ug/ml
T2 construct: range 1-183; also called hepatitis B virus core antigen

[3] = target: T2, Full length recombinant HBcAg (rHBcAg) …; assay: competition EIA, peptide added to HBcAg before mAb 4-2 (competitor); OD of bound mAb

T2 sequence (P03146 whole entry, the tested form may be a part): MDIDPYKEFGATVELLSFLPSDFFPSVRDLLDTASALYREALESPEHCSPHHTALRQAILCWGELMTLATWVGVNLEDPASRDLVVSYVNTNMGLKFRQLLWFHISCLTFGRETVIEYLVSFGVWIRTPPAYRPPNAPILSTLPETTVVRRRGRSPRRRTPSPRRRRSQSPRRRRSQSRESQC

Row | Binder | OD at 490 nm [1] | OD at 490 nm [2] | OD at 490 nm [3]
1 | B1 | 1.41 OD |  | 
2 | B2 |  | 0.414 OD | 0.903 OD
3 | B3 | 0.058 OD |  | 
4 | B4 |  | 0.565 OD | 0.777 OD
5 | B5 |  | 0.297 OD | 0.784 OD
6 | B6 | 1.39 OD |  | 
7 | B7 | 0.386 OD |  | 
8 | B8 |  | 3.36 OD | 0.175 OD
9 | B9 | 1.56 OD |  | 
10 | B10 |  | 0.407 OD | 0.92 OD
11 | B11 |  | 0.389 OD | 0.887 OD
12 | B12 | 1.58 OD |  | 
13 | B13 |  | 3.22 OD | 0.207 OD
14 | B14 | 1.37 OD |  | 
15 | B15 |  | 3.7 OD | 0.152 OD
16 | B16 |  | 3.69 OD | 0.808 OD
17 | B17 |  | 2.86 OD | 0.205 OD
18 | B18 | 1.13 OD |  | 
19 | B19 | 1.4 OD |  | 
20 | B20 |  | 0.255 OD | 0.851 OD
21 | B21 | 1.59 OD |  | 
22 | B22 |  | 0.237 OD | 0.866 OD
